{"source": "patent US9410182B2", "about": "“Phosphatase coupled glycosyltransferase assay” (Bio-Techne Corporation, priority 2010, dated 2016)", "molecules": {"B1": {"name": "Fut7: recombinant human fucosyltransferase 7 from R&D Systems (protein, UniProt Q11130 1-342, looked up)", "Alpha-(1,3)-fucosyltransferase …": "MNNAGHGPTRRLRGLGVLAGVALLAALWLLWLLGSAPRGTPAPQPTITILVWHWPFTDQPPELPSDTCTRYGIARCHLSANRSLLASADAVVFHHRELQTRRSHLPLAQRPRGQPWVWASMESPSHTHGLSHLRGIFNWVLSYRRDSDIFVPYGRLEPHWGPSPPLPAKSRVAAWVVSNFQERQLRARLYRQLAPHLRVDVFGRANGRPLCASCLVPTVAQYRFYLSFENSQHRDYITEKFWRNALVAGTVPVVLGPPRATYEAFVPADAFVHVDDFGSARELAAFLTGMNESRYQRFFAWRDRLRVRLFTDWRERFCAICDRYPHLPRSQVYEDLEGWFQA"}}, "assay": "Transferase activity of Fut7 on 3′-sialyl-N-acetyllactosamine assayed with CD39L3", "assay_type": "biochemical", "settings": "0.1 μg CD39L3, 40 μM GDP-fucose, 40 μM 3′-sialyl-N-acetyllactosamine, 37° C., 30 minutes", "text": "The GDP-Fucose, UDP-Glucose, CMP-NeuAc, CMP, UDP and GDP used in the following experiments were obtained from Sigma-Aldrich (St Louis, Mo.). The recombinant human Fut7, ST6Gal1, CD73, CD39L3, non-specific alkaline phosphatase TNAP, recombinant Clostridium Difficile toxin B (TcdB) containing the glycosyltransferase domain and Malachite Green Phosphate Detection Kit were obtained from R&D Systems (Minneapolis, Minn.). The 3′-Sialyl-N-acetyllactosamine was obtained from V-LABS, Inc (Convington, La.). Unless otherwise specified, each glycosyltransferase reaction was performed in 50 μL of a buffer of 25 mM Tris, 150 mM NaCl, 5 mM MgCl2 and 5 mM MnCl2, at pH 7.5 in a 96-well plate at room temperature for 20 minutes. To determine kinetic parameters of each glycosyltransferase, multiple reactions with varied amounts of either glycosyltransferase or substrates were preceded simultaneously in the presence of fixed amounts of all other components, including a phosphatase. A well containing all components except glycosyltransferase served as a blank control for each example. […] The plate was then read at 620 nm with a multi-well plate reader.\nThe only known function of fucosyltransferase 7 (Fut7) is the biosynthesis of sialy Lewis X epitope in leukocytes and high endothelial venule cells. […] The reaction was then stopped and detected by malachite reagents. […]", "data": [{"molecule": "B1", "values": [{"measurement": "specific activity of the enzyme", "result": 12.6, "unit": "pmol/min/µg"}]}]}
